Reference: patent CN112851807A (BLOOD DISEASES HOSPITAL CHINESE ACADEMY OF MEDICAL SCIENCES …, dated 2021)
Substitutions are numbered along the chain they refer to. Each block holds one binder with its values, some of them ahead of it.

Target: T1, 人CD123蛋白 (白细胞介素3受体α链) (human, UniProt P26951 19-378)
T1 construct: whole, on cells; also called IL-3Rα; 3T3/CD123+
Test: flow cytometry, PE-labelled antibody titrated on CD123-transfected 3T3 cells, fitted in GraphPad Prism 5

T1 sequence (P26951 19-378): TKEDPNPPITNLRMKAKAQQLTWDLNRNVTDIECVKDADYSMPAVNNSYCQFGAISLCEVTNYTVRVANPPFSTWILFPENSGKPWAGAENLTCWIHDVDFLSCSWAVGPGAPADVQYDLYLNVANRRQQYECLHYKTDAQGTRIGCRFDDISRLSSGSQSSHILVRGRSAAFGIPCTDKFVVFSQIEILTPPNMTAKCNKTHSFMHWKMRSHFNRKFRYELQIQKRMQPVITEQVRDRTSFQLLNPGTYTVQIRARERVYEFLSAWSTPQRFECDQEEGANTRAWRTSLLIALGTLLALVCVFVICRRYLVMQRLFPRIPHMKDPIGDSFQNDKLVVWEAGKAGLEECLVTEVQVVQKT

Kd: 2.09 nM
B1: 抗CD123单克隆抗体12H7 (antibody, IgG1, V domains shown)
VH: QVKLQESGPGLVKPSQSLSLTCTVTGYSITSDFAWNWVRQFPGDKLEWMGYISYSGGTNYHPSLKDRISITRDTSKNQVFLQLNSVTTEDTATYYCARGGMITPYFAYWGQGTLVTVSA
VL: DVVVTQTPLSLPVSFGDQVSISCRSSQSLANSYGNTFLSWYLHKPGQSPQLLIYGISNRFSGVPDRFSGSGSGTDFTLKISTIKPEDLGIYYCLQGTHQPWTFGGGTKLEIKR
notes: Purified from ascites; also called CGMCC 18847

Kd: 2.1 nM
B2: 抗CD123单克隆抗体6E11 (antibody, IgG1, V domains shown)
VH: QVQLQESGPGLVKPSQSLSLTCTVTGYSITNDFAWNWIRQFPGNKLEWMGYISFSGSTSYNPSLKGRISITRDTSKNQFFLQLNSVTTEDTATYSCARGGMITPYFSYWGQGTLVTVSA
VL: B1 VL with Q18S, K44R, T82S, I90V
notes: Purified from ascites; also called CGMCC 18848

Kd: 2.01 nM
B3: 抗CD123单克隆抗体8D7 (antibody, IgG1, V domains shown)
VH: EVQLQESGPGLVKPSQSLSLTCTVTGYSITNDYTWNWIRQFPGNKLEWMGYISFSGITSHNPSLNSRISITRDTSKNQFFLQLNSVTTEDTATYYCTRGVDFWGQGTSVTVSA
VL: DIVLTQSPATLSVTPGDSVSLSCWASQSISNSLHWYQQKSHESPRLLIKFASQSISGIPSRFSGSGSGTDFTLSIDSVETEDFGMYFCQQGHTWPHTFGAGTKLELKR
notes: Purified from ascites; also called CGMCC 18849
